Test results: publication PMC6321638, “Thermodynamic Characterization of the Ca^2+-Dependent Interaction Between SOUL and ALG-2” (International Journal of Molecular Sciences, 2018)

B1: His-SOUL^WT (wild-type SOUL fused to His-tag) (natural protein, mouse, UniProt Q9WU63 1-205, looked up)
chain: MAEEPEPDLGVAEGSEDQALEMPSWKAPEDIDPQPGSYEIRHYGPAKWVSTCVESLDWDSAIQTGFTKLNGYIQGKNEKEMKIKLTAPVTSYVEPGSSPFSESTITISLYIPSEQQPDPPRPSESDVFIEDRAEMTVFVRSFDGFSSGQKNQEQLLTLANILREEGKVFNEKVFYTAGYSSPFQLLDRNNEVWLIQKNEPSVENK
notes: Cloned into the Nde I and Sal I sites of pET28a(+); this probably gives an N-terminal His-tag with a thrombin site (surmised); Dimer by gel filtration; also called mSOUL; source: E. coli BL21(DE3) with pGroESL, purified (Ni-NTA-agarose, Sephadex G-25)
B6: GST-ALG-2^WT (wild-type ALG-2 fused to GST-tag) (natural protein, mouse, UniProt P12815 1-191, looked up)
chain: MAAYSYRPGPGGGPGPAAGAALPDQSFLWNVFQRVDKDRSGVISDNELQQALSNGTWTPFNPVTVRSIISMFDRENKAGVNFSEFTGVWKYITDWQNVFRTYDRDNSGMIDKNELKQALSGFGYRLSDQFHDILIRKFDRQGRGQIAFDDFIQGCIVLQRLTDIFRRYDTDQDGWIQVSYEQYLSMVFSIV
notes: ALG-2 (apoptosis-linked gene 2, PDCD6), murine, 1-191 amino acids; Cloned into the BamH I and Sal I sites of pGEX-4T-2; GST is probably N-terminal (surmised); also called apoptosis-linked gene 2 protein; PDCD6; source: E. coli BL21-CodonPlus(DE3)-(RIPL), purified (ammonium sulfate, Glutathione Sepharose, Sephadex G-25)
B8: delta3-23ALG-2^WT (domain or fragment, mouse, UniProt P12815 1-191, looked up)
chain: MADQSFLWNVFQRVDKDRSGVISDNELQQALSNGTWTPFNPVTVRSIISMFDRENKAGVNFSEFTGVWKYITDWQNVFRTYDRDNSGMIDKNELKQALSGFGYRLSDQFHDILIRKFDRQGRGQIAFDDFIQGCIVLQRLTDIFRRYDTDQDGWIQVSYEQYLSMVFSIV
notes: ALG-2 (PDCD6), murine, with deletion of the N-terminal 3-23 amino acids (the hydrophobic 21 residues); the plasmid paragraph calls it 24-191 amino acids, without tag; source: E. coli BL21-CodonPlus(DE3)-(RIPL), purified (Ca2+ precipitation, HiTrap Q, Sephacryl S-200 HR)
B9: delta3-23ALG-2^∆GF (domain or fragment, mouse, UniProt P12815 1-191, looked up)
chain: MADQSFLWNVFQRVDKDRSGVISDNELQQALSNGTWTPFNPVTVRSIISMFDRENKAGVNFSEFTGVWKYITDWQNVFRTYDRDNSGMIDKNELKQALSGYRLSDQFHDILIRKFDRQGRGQIAFDDFIQGCIVLQRLTDIFRRYDTDQDGWIQVSYEQYLSMVFSIV
notes: ALG-2 (PDCD6), murine, deletion of the N-terminal 3-23 amino acids and of Gly121 and Phe122 (splice variant); numbers count on full-length ALG-2^WT; N-terminus as for m3; source: E. coli, purified (as delta3-23ALG-2)

Legend:
delta3-23ALG-2^WT [1] = molecular target: B8; assay: ITC; His-SOUL (130 or 260 µM) injected into delta3-23ALG-2 (5 or 10 µM); 25 °C, pH 7.5, buffer C (25 mM HEPES, 150 mM NaCl, 10% glycerol) with 15 µM CaCl2 and 0.25% Tween 20; one-set-of-sites model (sequential-binding-sites model also tried); conditions: both partners purified
delta3-23ALG-2^∆GF = molecular target: B9; assay: as above; conditions: both partners purified
[2] = molecular target: the molecule itself; assay: SEC; Sephacryl-S-200 HR (150 mL), 1 mL of each protein sample (5 µM), buffer B with 20 µM CaCl2; fractions by SDS-PAGE
delta3-23ALG-2^WT [3] = molecular target: B8; assay: as above; conditions: both partners purified
delta3-23ALG-2^WT [4] = molecular target: B8; assay: ITC; His-SOUL (130 or 260 µM) injected into delta3-23ALG-2 (5 or 10 µM); 25 °C, pH 7.5, buffer C (25 mM HEPES, 150 mM NaCl, 10% glycerol) with 15 µM CaCl2 and 0.25% Tween 20; one-set-of-sites model (sequential-binding-sites model also tried); conditions: both partners purified; remark: listed apart in the source
[5] = molecular target: B1; assay: pull-down; GST-pulldown: purified His-SOUL (5 µM) and GST-ALG-2 (5 µM) with Glutathione Sepharose 4B in buffer B (100 mM Tris-HCl pH 7.5, 100 mM NaCl, 10% glycerol) with 20 µM CaCl2 (or various amounts of Ca2+), 30 min at 4 °C; SDS-PAGE, Coomassie; conditions: both partners purified
[6] = molecular target: B1; assay: ITC; His-SOUL (130 or 260 µM) injected into delta3-23ALG-2 (5 or 10 µM); 25 °C, pH 7.5, buffer C (25 mM HEPES, 150 mM NaCl, 10% glycerol) with 15 µM CaCl2 and 0.25% Tween 20; one-set-of-sites model (sequential-binding-sites model also tried); conditions: both partners purified
[7] = molecular target: B6; assay: pull-down; GST-pulldown: purified His-SOUL (5 µM) and GST-ALG-2 (5 µM) with Glutathione Sepharose 4B in buffer B (100 mM Tris-HCl pH 7.5, 100 mM NaCl, 10% glycerol) with 20 µM CaCl2 (or various amounts of Ca2+), 30 min at 4 °C; SDS-PAGE, Coomassie; conditions: both partners purified

Question: What does the source list for B1?
Answer: dH (delta3-23ALG-2^WT [1]): -17.9 ± 0.7 kcal/mol; stoichiometry N (delta3-23ALG-2^WT [1]): 1.16 ± 0.02; dH (delta3-23ALG-2^∆GF): -19.8 ± 2 kcal/mol; stoichiometry N (delta3-23ALG-2^∆GF): 1 ± 0.07; stoichiometry N [2]: 2; stoichiometry N (delta3-23ALG-2^WT [3]): 1; Kd of the first binding (sequential-binding-sites model) (delta3-23ALG-2^WT [4]): 37 nM; Kd of the second binding (sequential-binding-sites model) (delta3-23ALG-2^WT [4]): 40 nM

B2: GST-ALG-2 F85A (natural protein, mouse, UniProt P12815 1-191, looked up)
chain: MAAYSYRPGPGGGPGPAAGAALPDQSFLWNVFQRVDKDRSGVISDNELQQALSNGTWTPFNPVTVRSIISMFDRENKAGVNFSEATGVWKYITDWQNVFRTYDRDNSGMIDKNELKQALSGFGYRLSDQFHDILIRKFDRQGRGQIAFDDFIQGCIVLQRLTDIFRRYDTDQDGWIQVSYEQYLSMVFSIV
notes: ALG-2 (PDCD6), murine, 1-191 amino acids with F85A (pocket 3); source: E. coli, purified (as GST-ALG-2)
Question: Does B2 bind [5]?
Answer: binds

B3: GST-ALG-2 I92A (natural protein, mouse, UniProt P12815 1-191, looked up)
chain: MAAYSYRPGPGGGPGPAAGAALPDQSFLWNVFQRVDKDRSGVISDNELQQALSNGTWTPFNPVTVRSIISMFDRENKAGVNFSEFTGVWKYATDWQNVFRTYDRDNSGMIDKNELKQALSGFGYRLSDQFHDILIRKFDRQGRGQIAFDDFIQGCIVLQRLTDIFRRYDTDQDGWIQVSYEQYLSMVFSIV
notes: ALG-2 (PDCD6), murine, 1-191 amino acids with I92A (pocket 3); source: E. coli, purified (as GST-ALG-2)
Question: Does B3 bind [5]?
Answer: binds

B4: GST-ALG-2 L52A (natural protein, mouse, UniProt P12815 1-191, looked up)
chain: MAAYSYRPGPGGGPGPAAGAALPDQSFLWNVFQRVDKDRSGVISDNELQQAASNGTWTPFNPVTVRSIISMFDRENKAGVNFSEFTGVWKYITDWQNVFRTYDRDNSGMIDKNELKQALSGFGYRLSDQFHDILIRKFDRQGRGQIAFDDFIQGCIVLQRLTDIFRRYDTDQDGWIQVSYEQYLSMVFSIV
notes: ALG-2 (PDCD6), murine, 1-191 amino acids with L52A (pocket 3); source: E. coli, purified (as GST-ALG-2)
Question: Does B4 bind [5]?
Answer: binds

B5: GST-ALG-2 W89A (natural protein, mouse, UniProt P12815 1-191, looked up)
chain: MAAYSYRPGPGGGPGPAAGAALPDQSFLWNVFQRVDKDRSGVISDNELQQALSNGTWTPFNPVTVRSIISMFDRENKAGVNFSEFTGVAKYITDWQNVFRTYDRDNSGMIDKNELKQALSGFGYRLSDQFHDILIRKFDRQGRGQIAFDDFIQGCIVLQRLTDIFRRYDTDQDGWIQVSYEQYLSMVFSIV
notes: ALG-2 (PDCD6), murine, 1-191 amino acids with W89A (pocket 3); source: E. coli, purified (as GST-ALG-2)
Question: Does B5 bind [5]?
Answer: binds

Question: Does B6 bind [5]?
Answer: binds

B7: GST-ALG-2^∆GF (natural protein, mouse, UniProt P12815 1-191, looked up)
chain: MAAYSYRPGPGGGPGPAAGAALPDQSFLWNVFQRVDKDRSGVISDNELQQALSNGTWTPFNPVTVRSIISMFDRENKAGVNFSEFTGVWKYITDWQNVFRTYDRDNSGMIDKNELKQALSGYRLSDQFHDILIRKFDRQGRGQIAFDDFIQGCIVLQRLTDIFRRYDTDQDGWIQVSYEQYLSMVFSIV
notes: ALG-2 (PDCD6), murine, natural splice variant with deletion of Gly121 and Phe122; made by PCR-based mutagenesis of the 1-191 construct; also called ALG-2^ΔGF; source: E. coli, purified (as GST-ALG-2)
Question: Does B7 bind [5]?
Answer: binds

Question: B8 was tested. Which Kd [6] did it give?
Answer: 32.4 ± 6.6 nM

Question: Which Kd [6] does the source give for B9 here?
Answer: 62 ± 13.7 nM

B10: His-SOUL mutant (36-111/126-205) without two PRRs (domain or fragment, mouse, UniProt Q9WU63 36-205, looked up)
chain: GSYEIRHYGPAKWVSTCVESLDWDSAIQTGFTKLNGYIQGKNEKEMKIKLTAPVTSYVEPGSSPFSESTITISLYIDVFIEDRAEMTVFVRSFDGFSSGQKNQEQLLTLANILREEGKVFNEKVFYTAGYSSPFQLLDRNNEVWLIQKNEPSVENK
notes: source: E. coli BL21(DE3) with pGroESL, purified (Ni-NTA-agarose, Sephadex G-25)
Question: Does B10 bind [7]?
Answer: binds

B11: His-SOUL1-111 (domain or fragment, mouse, UniProt Q9WU63 1-111, looked up)
chain: MAEEPEPDLGVAEGSEDQALEMPSWKAPEDIDPQPGSYEIRHYGPAKWVSTCVESLDWDSAIQTGFTKLNGYIQGKNEKEMKIKLTAPVTSYVEPGSSPFSESTITISLYI
notes: SOUL (HEBP2), murine, residues 1-111; source: E. coli BL21(DE3) with pGroESL, purified (Ni-NTA-agarose, Sephadex G-25)
Question: Does B11 bind [7]?
Answer: binds

B12: His-SOUL1-143 (domain or fragment, mouse, UniProt Q9WU63 1-143, looked up)
chain: MAEEPEPDLGVAEGSEDQALEMPSWKAPEDIDPQPGSYEIRHYGPAKWVSTCVESLDWDSAIQTGFTKLNGYIQGKNEKEMKIKLTAPVTSYVEPGSSPFSESTITISLYIPSEQQPDPPRPSESDVFIEDRAEMTVFVRSFD
notes: as for B10
Question: What does the source list for B12?
Answer: Kd (delta3-23ALG-2^WT [4]): 1300 nM; stoichiometry N (delta3-23ALG-2^WT [4]): 1
